{
  "source": "the supplement of paper PMC9732359",
  "note": "± gives the uncertainty stated by the source.",
  "data": [
    {"test": "protein stability index of a GFP-peptide fusion (yeast GPS) (PSI 1-4); higher = more stable; sorted into four equal gates, so the index is relative within each strain", "settings": "doa10∆", "procedure,_shortened": "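The protein stability index of a peptide was calculated by multiplying its read frequency in each gate by that gate's number and adding the products. The peptides were tiled 17-residue stretches of yeast proteins, fused downstream of GFP on a Cherry-expressing plasmid and carried in yeast as a pooled library. Mid-log cultures in leucine-free medium were sorted into four equal gates by GFP/Cherry ratio, and each gate's plasmids were PCR-amplified and Illumina-sequenced.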", "values": [
      {"sequence": "SLGIAQPKGVILYGPPG [RPT6]", "protein stability index": "2.71 ± 0.061"},
      {"sequence": "SLHSNSFSLTVSKEQFL [YJL039C/NUP192]", "protein stability index": "1.81 ± 0.065"},
      {"sequence": "SLKLENSDLEGKIRGVE [SMC2]", "protein stability index": "3.23 ± 0.086"},
      {"sequence": "SLLDKPDEAIEKVFNAY [FAS1]", "protein stability index": "3.15 ± 0.085"},
      {"sequence": "SLSDNDLAVCATIIGII [ECM29]", "protein stability index": "2.71 ± 0.072"},
      {"sequence": "SLSIKLATLHYQKKQYK [RPN6]", "protein stability index": "1.33 ± 0.064"},
      {"sequence": "SLWRRTVYSLSQQAGLD [YDL116W/NUP84]", "protein stability index": "1.9 ± 0.12"},
      {"sequence": "SMCGFEVRILPRQRMEE [PRP8]", "protein stability index": "2.29 ± 0.057"},
      {"sequence": "SMNVTLGVPRIKEIINA [RPO31]", "protein stability index": "2.71 ± 0.066"},
      {"sequence": "SNEDVMMTGAEQDPYSN [RPB3]", "protein stability index": "3.09 ± 0.092"},
      {"sequence": "SNEEKEKIKMKLKQGQK [GAL11]", "protein stability index": "2.96 ± 0.25"},
      {"sequence": "SNEEQRNLDSATLKEIK [SMC3]", "protein stability index": "3.5 ± 0.14"},
      {"sequence": "SNGGNNMLPQRQSSVGS [SNF2]", "protein stability index": "1.76 ± 0.067"},
      {"sequence": "SNKKETKKKRKPTEVND [ITC1]", "protein stability index": "3.15 ± 0.078"},
      {"sequence": "SNLAATKSMVKIAEQYS [RPN11]", "protein stability index": "2.83 ± 0.075"},
      {"sequence": "SNMFDNSADVDMDAQGR [YGL100W/SEH1]", "protein stability index": "3.42 ± 0.085"},
      {"sequence": "SNNTGNTAFGNSNPTSN [YJL041W/NSP1]", "protein stability index": "3.01 ± 0.15"},
      {"sequence": "SNQLISNYAASNSMDRS [SWI1]", "protein stability index": "3.11 ± 0.18"},
      {"sequence": "SNRLHPPDIHPNLGPQL [GRR1]", "protein stability index": "3.12 ± 0.074"},
      {"sequence": "SNSTPNANQQFLPFNNS [SWI1]", "protein stability index": "3.25 ± 0.072"},
      {"sequence": "SNSVFSPDGRNFQVEYA [PRE10]", "protein stability index": "3.04 ± 0.057"},
      {"sequence": "SNYDWLFQLLNALTVGD [RPN9]", "protein stability index": "2.34 ± 0.076"},
      {"sequence": "SPAALKQLASLKKSEEI [YMR153W/NUP53]", "protein stability index": "2.2 ± 0.23"},
      {"sequence": "SPASGIVDKYIGESARI [RPT4]", "protein stability index": "2.95 ± 0.27"},
      {"sequence": "SPELKAELRPLQFKSIR [RPS7A]", "protein stability index": "2.91 ± 0.11"},
      {"sequence": "SPFFVLDEVDAALDITN [SMC1]", "protein stability index": "2.39 ± 0.093"},
      {"sequence": "SPMLKRIKITANNNMND [GRR1]", "protein stability index": "2.36 ± 0.055"},
      {"sequence": "SPRNTYQCAMGKQAIGA [RET1]", "protein stability index": "1.94 ± 0.14"},
      {"sequence": "SPSYSPTSPAYSPTSPS [RPO21]", "protein stability index": "2.93 ± 0.05"},
      {"sequence": "SPSYSPTSPNYSPTSPS [RPO21]", "protein stability index": "2.85 ± 0.039"},
      {"sequence": "SPTESYSDIGGLESQIQ [RPT2]", "protein stability index": "3.3 ± 0.14"},
      {"sequence": "SPYAAMLAAQDVAAKCK [RPS14A]", "protein stability index": "2.28 ± 0.05"},
      {"sequence": "SQASSDLGETFRGIIRS [CSL4]", "protein stability index": "3.17 ± 0.14"},
      {"sequence": "SQDTKVICSVTGPIEPK [RRP46]", "protein stability index": "1.68 ± 0.07"},
      {"sequence": "SQLQPQPQPQPQQQQQH [YDL088C/ASM4]", "protein stability index": "2.79 ± 0.087"},
      {"sequence": "SQPSKKSFANHTEDEQI [SIR4]", "protein stability index": "2.81 ± 0.059"},
      {"sequence": "SQQAGLDPYERAIYSYL [YDL116W/NUP84]", "protein stability index": "2.81 ± 0.12"},
      {"sequence": "SREIAQPSSSRYNGGND [SMB1]", "protein stability index": "3.19 ± 0.087"},
      {"sequence": "SRGESDDSLNRLAQNDG [RPS21A]", "protein stability index": "2.72 ± 0.19"},
      {"sequence": "SRIYKTIKVAGTPLLEV [SNU114]", "protein stability index": "2.21 ± 0.052"},
      {"sequence": "SRKAHGLNAKQLYKARM [POP1]", "protein stability index": "3.03 ± 0.094"},
      {"sequence": "SRKGIAFGLGAIMSKSS [ECM29]", "protein stability index": "1.61 ± 0.058"},
      {"sequence": "SRKRAKKMTKKAKRSNL [PRP8]", "protein stability index": "2.94 ± 0.07"},
      {"sequence": "SRKRKPKSASNTSSKRQ [IRR1]", "protein stability index": "2.86 ± 0.1"},
      {"sequence": "SRPASYGYFSVGKRVPI [SIR4]", "protein stability index": "2.31 ± 0.19"},
      {"sequence": "SRRWRQRKNIQSLELMI [BRR2]", "protein stability index": "1.39 ± 0.096"},
      {"sequence": "SRTFDKYSKLVDNVTLE [SRP72]", "protein stability index": "3.37 ± 0.12"},
      {"sequence": "SRYILFEIIFPPTDTNV [POP5]", "protein stability index": "1.54 ± 0.069"},
      {"sequence": "SSFEENNDLESVSMLLQ [RRI2]", "protein stability index": "2.98 ± 0.071"},
      {"sequence": "SSFVRQELAKSIRSRRP [PRE1]", "protein stability index": "2.08 ± 0.12"},
      {"sequence": "SSKLYQMQQQQQAQAQA [GAL11]", "protein stability index": "1.89 ± 0.071"},
      {"sequence": "SSKTSQPKPLFSFGKSD [YOR098C/NUP1]", "protein stability index": "2.16 ± 0.043"},
      {"sequence": "SSLASQDVDFYKNLDRG [RRP6]", "protein stability index": "1.31 ± 0.084"},
      {"sequence": "SSLVRRNSVKLLSKLLL [YCS4]", "protein stability index": "1.68 ± 0.047"},
      {"sequence": "SSQLNKLTDEQSSLDVA [SIR3]", "protein stability index": "2.66 ± 0.088"},
      {"sequence": "SSQVREHVKELLKYSNE [RPL1A]", "protein stability index": "1.63 ± 0.077"},
      {"sequence": "SSSDFRLHYYPKDPSNV [BRR2]", "protein stability index": "3.21 ± 0.066"},
      {"sequence": "SSTQDVILRKISMLVTQ [CSI1]", "protein stability index": "1.62 ± 0.054"},
      {"sequence": "SSVVSEPKKPSFTFASS [YOR098C/NUP1]", "protein stability index": "3 ± 0.049"},
      {"sequence": "SSVYRLKFAVQVDKVTK [RPL26A]", "protein stability index": "1.67 ± 0.16"},
      {"sequence": "SSYEEFLERFDFYTRHH [ITC1]", "protein stability index": "3.19 ± 0.13"},
      {"sequence": "STEEIEYIELEYRDLYT [YMR129W/POM152]", "protein stability index": "2.56 ± 0.11"},
      {"sequence": "STFGFNNSAPNNTNNAN [YJL041W/NSP1]", "protein stability index": "3.13 ± 0.042"},
      {"sequence": "STGCVVGLSQPDAKIQV [YMR129W/POM152]", "protein stability index": "2.29 ± 0.15"},
      {"sequence": "STGLKNASDALKGRVVE [RPS1B]", "protein stability index": "3.21 ± 0.15"},
      {"sequence": "STISAREIQTAVRLILP [HTB1]", "protein stability index": "2.13 ± 0.11"},
      {"sequence": "STKELKFSDIIQGISKM [BRN1]", "protein stability index": "3.16 ± 0.098"},
      {"sequence": "STKVENSAIIQNLRKEL [YIL149C/MLP2]", "protein stability index": "3.2 ± 0.084"},
      {"sequence": "STLLCTDLESKSRMINF [SNU114]", "protein stability index": "2.62 ± 0.05"},
      {"sequence": "STMGTPTVHNSTAAAPI [PGD1]", "protein stability index": "2.83 ± 0.095"},
      {"sequence": "STSGDPSEFHCLQDALD [SSN2]", "protein stability index": "3.07 ± 0.16"},
      {"sequence": "STTEHINIDDLLYELTA [YJL039C/NUP192]", "protein stability index": "2.82 ± 0.11"},
      {"sequence": "STTQEILEFITAAQVAN [RPC34]", "protein stability index": "2.65 ± 0.1"},
      {"sequence": "STVAKNVSFVLPDEKSD [YCG1]", "protein stability index": "3.2 ± 0.058"},
      {"sequence": "STVASALDTNGTSATTE [SIR4]", "protein stability index": "2.2 ± 0.075"},
      {"sequence": "STVKGSVDLEKLAFGLT [TAF14]", "protein stability index": "3.58 ± 0.13"},
      {"sequence": "STVSANHSNNDIPTIAD [BRN1]", "protein stability index": "3.22 ± 0.097"},
      {"sequence": "SVAEVFQKAQGSYAGHR [YCG1]", "protein stability index": "1.9 ± 0.11"},
      {"sequence": "SVDIGVETILSGKARIC [FAS2]", "protein stability index": "2.7 ± 0.12"},
      {"sequence": "SVDITGGPWFTDGELDI [RPC34]", "protein stability index": "3.04 ± 0.14"},
      {"sequence": "SVDKKVDSGEERNEQER [SWI3]", "protein stability index": "3.53 ± 0.092"},
      {"sequence": "SVDMSALKDPQTDADRV [RIP1]", "protein stability index": "3.27 ± 0.079"},
      {"sequence": "SVFDATSDPVMHKQLAY [RPN1]", "protein stability index": "2.28 ± 0.11"},
      {"sequence": "SVFNAELLKLLNDEYNY [YCS4]", "protein stability index": "1.76 ± 0.053"},
      {"sequence": "SVGTDPMPIITFLSEWG [RPB2]", "protein stability index": "2.7 ± 0.1"},
      {"sequence": "SVIPLKGRYAPETGDHV [RRP4]", "protein stability index": "2.53 ± 0.059"},
      {"sequence": "SVIVKFHSEPDRDENWI [LIN1]", "protein stability index": "2.69 ± 0.072"},
      {"sequence": "SVKKAGASINSMKANTS [ARP7]", "protein stability index": "2.07 ± 0.052"},
      {"sequence": "SVKLDLQDDEDHKFPIR [BRN1]", "protein stability index": "2.99 ± 0.18"},
      {"sequence": "SVKLKQKRLEAGALNLA [DIS3]", "protein stability index": "3.42 ± 0.13"},
      {"sequence": "SVLHSWVQLVQIIVTDG [YJL039C/NUP192]", "protein stability index": "1.58 ± 0.049"},
      {"sequence": "SVLISIPLDNYDDFIYL [PCI8]", "protein stability index": "1.25 ± 0.048"},
      {"sequence": "SVLQLFQSVQLNINNPN [SMC2]", "protein stability index": "1.88 ± 0.049"},
      {"sequence": "SVLSSKPGSKPEKTSTE [SIR3]", "protein stability index": "3.17 ± 0.12"},
      {"sequence": "SVLYPDELEDDTLNETN [RRP43]", "protein stability index": "3 ± 0.082"},
      {"sequence": "SVPIWVDTSTELESMLE [RRP6]", "protein stability index": "3.07 ± 0.12"},
      {"sequence": "SVQDLGGSATARHKKKV [YML031W/NDC1]", "protein stability index": "2.7 ± 0.12"},
      {"sequence": "SVSLLNSDIANLRTQVT [SMC1]", "protein stability index": "3.04 ± 0.09"},
      {"sequence": "SVSLVDEFPSELSDSDR [SIR4]", "protein stability index": "2.68 ± 0.071"},
      {"sequence": "SVVKKEDNKYAIAGNST [RGR1]", "protein stability index": "3.1 ± 0.084"}
    ]}
  ]
}
